One molecule from patent publication US20260056186A1 (JIANGSU HENGRUI PHARMACEUTICALS, published 2026) can be followed below.

Like-named read-outs stand apart in the source and are kept apart here.

Test [1] concerns the target T1, recombinant human BAFF (R&D cat: 7537-BF-025/CF) (human, UniProt Q9Y275 134-285). As to the kind of experiment: cell-based or functional assay.
Test [2] concerns the target T1, recombinant human BAFF (R&D cat: …). As to the kind of experiment: cell-based or functional assay. This is another data set of the same source.
Test [3] has as its target T2, recombinant human APRIL (R&D cat: 5860-AP-010/CF) (human, UniProt O75888 105-250, limits assumed).
T2 sequence (looked up): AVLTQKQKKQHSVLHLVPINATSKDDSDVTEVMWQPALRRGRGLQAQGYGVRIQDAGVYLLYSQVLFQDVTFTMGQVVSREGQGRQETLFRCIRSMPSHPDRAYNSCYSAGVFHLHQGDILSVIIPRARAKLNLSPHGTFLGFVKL
Description: cell-based or functional assay.

In test [4] the target is T3, BAFF (PeproTech, Cat: 310-13) (UniProt Q9Y275 134-285). As to the kind of experiment: ELISA, BAFF coated at 1 ug/mL, anti-human Fc-HRP, OD450. The method, then: (§1) The capabilities of B613301, B613302, and B613303, which are fusion proteins of anifrolumab and TACI-BCMA, to bind to BAFF and APRIL were assessed by ELISA as follows: [0548] BAFF (PeproTech, Cat: 310-13) or ARPIL (Acro Biosystems, Cat: APL-H52D1) was diluted to 1 μg/mL with PBS, and a 96-well plate (Costar, Cat: 3590) was coated with the dilution overnight at 4° C. The plate was washed with PBST and blocked with Blocking Buffer (PBST containing 1% BSA) at 37° C. for 1 h. The plate was tapped. The test antibodies were diluted with Blocking Buffer. Incubation was performed at 37° C. for 1.5 h. The plate was washed with PBST. An HRP-mouse anti-human Fc antibody (GenScript, Cat: A01854-200) was diluted with Blocking Buffer. Incubation was performed at 37° C. for 40 min. The plate was washed with PBST. 100 μL of TMB substrate solution (Biopanda, Cat: TMB-S-003) was added, and color development was performed at 37° C. for 3 min. 100 μL of ELISA stop solution (Solarbio, Cat: C1058) was added. OD450 was measured.
T3 sequence (Q9Y275 134-285 limits assumed): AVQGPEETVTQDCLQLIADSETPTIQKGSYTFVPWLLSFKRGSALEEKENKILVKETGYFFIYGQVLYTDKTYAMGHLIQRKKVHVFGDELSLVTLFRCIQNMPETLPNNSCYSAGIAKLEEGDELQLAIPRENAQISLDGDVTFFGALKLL
(In an ELISA, binding on a coated surface is turned into a signal by an enzyme label.)

Test [5] has as its target T3, BAFF (PeproTech, Cat: 310-13). The test is described as above. The method, then:
as §1
The source holds these as a separate data set.

Test [6] shares this target. The test is described as above. The method, then:
The capabilities of fusion proteins B606401, B637302, B746201, and B805201 to bind to BAFF and APRIL were assessed by ELISA as follows:
as §1, with “BAFF” for “The capabilities of B613301, B613302, and B613303, which are fusion proteins of anifrolumab and TACI-BCMA, to bind to BAFF and APRIL were assessed by ELISA as follows: [0548] BAFF”, “plate” for “plate (Costar, Cat: 3590)”
This is another data set of the same source.

Test [7] has the same target. Description: ELISA, plate coated with BAFF 1 ug/mL, HRP anti-human Fc, OD450. The method, then:
as §1, with “BAFF” for “The capabilities of B613301, B613302, and B613303, which are fusion proteins of anifrolumab and TACI-BCMA, to bind to BAFF and APRIL were assessed by ELISA as follows: [0548] BAFF”, “310-13)” for “310-13) or ARPIL (Acro Biosystems, Cat: APL-H52D1)”, “plate” for “plate (Costar, Cat: 3590)”

T1 sequence (Q9Y275 134-285 limits assumed): as above

B1: Telitacicept (RCT-18) (Fc fusion)
chain: SRVDQEERFPQGLWTGVAMRSCPEEQYWDPLLGTCMSCKTICNHQSQRTCAAFCRSLSCRKEQGKFYDHLLRDCISCASICGQHPKQCAYFCENKLRSPVNLPPELDKTHTCPPCPAPEAEGAPSVFLFPPKPKDTLMISRTPEVTCVVVDVSHEDPEVKFNWYVDGVEVHNAKTKPREEQYNSTYRVVSVLTVLHQDWLNGKEYKCKVSNKALPSSIEKTISKAKGQPREPQVYTLPPSRDELTKNQVSLTCLVKGFYPSDIAVEWESNGQPENNYKTTPPVLDSDGSFFLYSKLTVDKSRWQQGNVFSCSVMHEALHNHYTQKSLSLSPGK
notes: Positive control TACI-Fc; also called RC18
Take B1: in test [1], the “Flow cytometry proliferating B cell proportion (%), mean value, BAFF-induced, drug at 10 nM (IgG1: 40.15)” value worked out at 36%; the “Flow cytometry proliferating B cell proportion (%), mean value, BAFF-induced, drug at 100 nM (IgG1: 40.60)” value came out at 30.7%; the “Flow cytometry proliferating B cell proportion (%), mean value, BAFF-induced, drug at 1000 nM (IgG1: 33.97)” value was 24.3%. For the same molecule, in test [2], the “CD27+ CD38+ plasma cell count, mean value, BAFF + APRIL-induced (both ligands together), drug at 100 nM (IgG1: 2496)” value came out at 510 cells and the “CD27+ CD38+ plasma cell count, mean value, BAFF + APRIL-induced (both ligands together), drug at 1000 nM (IgG1: 2279)” value turned out to be 230 cells. Besides, in test [3], the “CD27+ CD38+ plasma cell count, mean value, BAFF + APRIL-induced (both ligands together), drug at 10 nM (IgG1: 2687)” value came to 2450 cells; the “CD27+ CD38+ plasma cell count, mean value, BAFF + APRIL-induced (both ligands together), drug at 100 nM (IgG1: 2496)” value worked out at 510 cells; the “CD27+ CD38+ plasma cell count, mean value, BAFF + APRIL-induced (both ligands together), drug at 1000 nM (IgG1: 2279)” value is 230 cells. In test [4], the EC50 (in general, the concentration at which the effect is half-maximal) worked out at 0.801 nM. The half-maximal effective concentration (EC50) in test [5] worked out at 0.801 nM. In test [6], this molecule showed an EC50 of 0.256 nM. Besides, the EC50 (read off the curve) (usually the concentration that produces a half-maximal response) in test [7] is approximately 0.4 nM.
